Measurements from patent US20190106460A1 (published 2019).
Where two headings read alike, the source gives them in different places. Starred links: 1 amine or outer side, 2 acyl side, 3 side chain; linkers in the order of their positions; H or OH if unused. Non-standard residues stand in square brackets, D forms with d. *: point of attachment. 2,4,6‑trimethylbenzoyl = Cc1cc(C)c(C(=O)*)c(C)c1; 4‑(Br)‑2‑(Me)PhSO2 = Cc1cc(Br)ccc1S(=O)(=O)*; Benzoyl(4-tBu) = CC(C)(C)c1ccc(C(=O)*)cc1; 4‑(n-Pr)PhSO2 = CCCc1ccc(S(=O)(=O)*)cc1; Phe(3-F) = N[C@@H](Cc1cccc(F)c1)C(=O)O; 1Nal = N[C@@H](Cc1cccc2ccccc12)C(=O)O; Benzoyl(4-Br) = O=C(c1ccc(Br)cc1)*; 2Naphthoyl = O=C(c1ccc2ccccc2c1)*; Benzoyl(4-Me) = Cc1ccc(C(=O)*)cc1; Brosyl = O=S(=O)(c1ccc(Br)cc1)*; Suc = O=C(CCC(=O)[*:2])[*:1]; Tos = Cc1ccc(S(=O)(=O)*)cc1; Ethoxycarbonyl = CCOC(=O)*; Propionyl = CCC(=O)*; Bz = O=C(c1ccccc1)*; Ahx = NCCCCCC(=O)O; Moc = COC(=O)*

Key:
[1] = target: T1, βTrCP (tag cleaved and complexed with Skp1) (UniProt Q9Y297 175-605; P63208 1-163); experiment: fluorescence polarisation assay; the column head does not say whether IC50 or Ki
T1 construct: Protein of the fluorescence polarisation assay, 0.035 µM; also called Beta Transducin repeat-containing protein; βTrCP/Skp1
Experimental: Assay components (without compound) were premixed in a microcentrifuge tube and incubated for 1 hour to ensure equilibrium was achieved. Each compound was then added to one tube, mixed by vortexing, and then dispensed into 3 wells of a black 384-well plate and incubated for 30 minutes. Fluorescence polarization was then read (excitation 485 nm, emission 530 nm) using an Analyst-AD from Molecular Devices.
Binding of the compounds to βTrCP was assessed using a fluorescence polarisation (FP) binding assay. The FP assay is an in vitro binding assay using a fluorescein-tagged IkB peptide at 10 nM to mimic substrate binding to βTrCP, and was performed as described above.

Skp2 = Skp2 (UniProt Q13309 1-424, limits assumed); experiment: cell-based or functional assay
Fbw7 = Fbw7 (UniProt Q969H0 263-707, limits assumed); experiment: cell-based or functional assay
[2] = target: T2, βTrCP (tag cleaved and complexed with Skp1) (UniProt Q9Y297 175-605; P63208 1-163); experiment: FP competition vs fluorescein-IκB peptide
T2 construct: Protein of the FP assay (0.035 µM); also called Beta Transducin repeat-containing protein; βTrCP/Skp1

[3] = target: T2, βTrCP (tag cleaved and complexed with …); experiment: FP competition vs fluorescein-IκB peptide; remark: listed apart in the source
[4] = target: T3, HisβTrCP/Skp1 and HisβTrCP/GSTSkp1 (immobilised on NTA Biacore chip) (UniProt Q9Y297 175-605; P63208 1-163); experiment: SPR, Biacore T200, βTrCP/Skp1 immobilised
T3 construct: SPR: KD values from both surfaces (with or without the GST moiety) were averaged to give the apparent KD; also called βTrCP surfaces
Text: As βTrCP was His tagged, an NTA sensor chip was used. This sensor chip has a dextran surface matrix with immobilized nitrilotriacetic acid (NTA) which provides a means of capturing polyHis-tagged proteins through Nickel chelation. It was hoped that addition of Ni⁺ would orient the protein in a specific (and hopefully active) manner as it is covalently immobilised via amine coupling. Addition of EDC:NHS (N-ethyl-N′-(3-[…])-carbodiimide:N-hydroxysuccinimide) converts carboxyl groups on the dextran sensor chip surface to succinamide esters which readily form covalent bonds with primary amines. Each chip contains four flow cells (each a separate surface) which means that compounds/peptides can be passed over different forms of βTrCP and a reference surface simultaneously. If binding to βTrCP is occurring, responses should be the same (accounting for differences in density of surface etc) on each surface.
Small molecule/peptide samples to be assayed for binding to βTrCP surfaces, were provided as 10 mM stocks in 100% DMSO. All samples were tested in running buffer composed of 10 mM HEPES pH 7.4, 150 mM NaCl, 50 μM EDTA, 0.005% p20, and 1% DMSO. Serial dilutions were made using running buffer. Samples were tested over varying concentrations up to a maximum of 100 μM. Two methods of measuring the SPR response were employed: single cycle kinetics which measures the response across different concentrations of sample within a single cycle (no regeneration of surface) and a method that measures the response at a given concentration in each cycle and includes a regeneration wash after each sample injection. The regeneration solution used was the same as running buffer, but included 500 mM NaCl. Data was fitted using Biacore T200 evaluation software. KD values calculated from binding curves from both surfaces (with or without the GST moiety) were averaged to produce apparent KD's for each sample tested.

Chain of Fbw7 (Q969H0 263-707 limits assumed): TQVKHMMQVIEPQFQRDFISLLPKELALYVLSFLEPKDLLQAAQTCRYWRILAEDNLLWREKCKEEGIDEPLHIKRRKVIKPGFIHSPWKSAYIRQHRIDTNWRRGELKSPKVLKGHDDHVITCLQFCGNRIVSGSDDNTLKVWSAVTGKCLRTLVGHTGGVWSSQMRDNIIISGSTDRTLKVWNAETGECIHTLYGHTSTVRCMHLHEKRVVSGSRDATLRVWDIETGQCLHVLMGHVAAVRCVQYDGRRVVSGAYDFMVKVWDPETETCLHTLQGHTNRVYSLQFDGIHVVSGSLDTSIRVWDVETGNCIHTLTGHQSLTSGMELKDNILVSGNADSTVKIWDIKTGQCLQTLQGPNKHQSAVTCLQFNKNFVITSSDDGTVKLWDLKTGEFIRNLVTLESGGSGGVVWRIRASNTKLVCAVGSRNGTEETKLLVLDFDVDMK
T3 sequence (Q9Y297 175-605, chain 1 of 2): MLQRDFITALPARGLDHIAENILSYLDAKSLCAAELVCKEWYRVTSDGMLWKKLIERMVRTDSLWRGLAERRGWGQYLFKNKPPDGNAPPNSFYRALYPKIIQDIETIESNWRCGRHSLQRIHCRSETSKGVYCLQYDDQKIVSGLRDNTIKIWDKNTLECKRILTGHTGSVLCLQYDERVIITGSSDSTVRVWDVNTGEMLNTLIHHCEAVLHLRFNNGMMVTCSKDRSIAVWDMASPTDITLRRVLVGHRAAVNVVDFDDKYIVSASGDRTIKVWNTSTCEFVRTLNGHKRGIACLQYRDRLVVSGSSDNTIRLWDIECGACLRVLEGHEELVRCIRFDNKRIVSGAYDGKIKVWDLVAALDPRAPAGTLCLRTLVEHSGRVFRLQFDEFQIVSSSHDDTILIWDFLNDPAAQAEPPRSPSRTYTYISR
T3 sequence (P63208 whole entry, chain 2 of 2): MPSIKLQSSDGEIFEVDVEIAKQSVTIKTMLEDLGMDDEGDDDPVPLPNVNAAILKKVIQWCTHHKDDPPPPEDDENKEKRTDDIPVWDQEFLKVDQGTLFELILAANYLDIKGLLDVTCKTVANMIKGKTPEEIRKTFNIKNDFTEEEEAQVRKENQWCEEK
Chain of Skp2 (Q13309 whole entry): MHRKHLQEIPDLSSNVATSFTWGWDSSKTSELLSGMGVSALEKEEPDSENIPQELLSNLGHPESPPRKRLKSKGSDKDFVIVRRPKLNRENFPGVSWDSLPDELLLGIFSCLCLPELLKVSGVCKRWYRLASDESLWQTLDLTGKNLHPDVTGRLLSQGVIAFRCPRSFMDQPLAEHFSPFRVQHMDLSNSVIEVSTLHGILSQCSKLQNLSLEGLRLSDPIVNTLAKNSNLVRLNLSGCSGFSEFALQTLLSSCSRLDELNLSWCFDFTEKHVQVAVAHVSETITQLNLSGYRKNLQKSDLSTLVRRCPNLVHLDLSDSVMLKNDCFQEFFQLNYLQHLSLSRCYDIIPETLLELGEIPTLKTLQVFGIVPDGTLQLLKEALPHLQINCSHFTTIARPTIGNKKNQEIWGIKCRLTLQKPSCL

| Binder | FP Assay / [1] | % Inhibition Skp2 @ 10 µM (Skp2) | % Inhibition Skp2 @ (100 µM) (Skp2) | % Inhibition Fbw7 @ 10 µM (Fbw7) | % Inhibition Fbw7 @ (100 µM) (Fbw7) | IC50 [2] | IC50 [3] | Kd [4] |
| --- | --- | --- | --- | --- | --- | --- | --- | --- |
| Brosyl-[dD]EG[Phe(3-F)]WE[Ahx]K(Benzoyl(4-Br))-NH2 (Round II CPP; also called UBP093) [4-(Br)PhSO2-dEGF(3F)WE-Ahx-K(CO((4-Br)Ph))-NH2] | 106 nM |  |  |  |  |  |  |  |
| Ac-[dD]EG[Phe(3-F)][1Nal]E-NH2 (SMILES CC(=O)N[C@H](CC(=O)O)C(=O)N[C@@H](CCC(=O)O)C(=O)NCC(=O)N[C@@H](Cc1cccc(F)c1)C(=O)N[C@@H](Cc1cccc2ccccc12)C(=O)N[C@@H](CCC(=O)O)C(N)=O, also called UBP016) [Ac-dEGF(3F)1NalE-NH2] |  | 0% | 7% | 3% | 8% | 112 nM | 112 nM | 590 nM |
| Brosyl-[dD]EG[Phe(3-F)]WE[Ahx]K(Benzoyl(4-Me))-NH2 (Round II CPP; also called UBP092) [4-(Br)PhSO2-dEGF(3F)WE-Ahx-K(CO((4-Me)Ph))-NH2] | 151 nM |  |  |  |  |  |  |  |
| Brosyl-[dD]EG[Phe(3-F)]WE[Ahx]K(Benzoyl(4-tBu))-NH2 (Round II CPP; also called UBP089) [4-(Br)PhSO2-dEGF(3F)WE-Ahx-K(CO((4-tBu)Ph))-NH2] | 305 nM |  |  |  |  |  |  |  |
| {4‑(n-Pr)PhSO2}-[dD]EG[Phe(3-F)]WE[Ahx]K(Benzoyl(4-Br))-NH2 (Round II CPP; also called UBP088) [4-(n-Pr)PhSO2-dEGF(3F)WE-Ahx-K(CO((4-Br)Ph))-NH2] | 39.6 nM |  |  |  |  |  |  |  |
| {4‑(Br)‑2‑(Me)PhSO2}-[dD]EG[Phe(3-F)]WE[Ahx]K(Benzoyl(4-Me))-NH2 (Round II CPP; also called UBP097) [4-(Br)-2-(Me)PhSO2-dEGF(3F)WE-Ahx-K(CO((4-Me)Ph))-NH2] | 114 nM |  |  |  |  |  |  |  |
| {4‑(PhO)PhSO2}-[dD]EG[Phe(3-F)]WE-NH2 [4-(PhO)PhSO2-dEG-F(3F)-WE-NH2] |  |  |  |  |  | 63 nM |  |  |
| {4‑(n-Pr)PhSO2}-[dD]EG[Phe(3-F)]WE[Ahx]K(Benzoyl(4-Me))-NH2 (Round II CPP; also called UBP087) [4-(n-Pr)PhSO2-dEGF(3F)WE-Ahx-K(CO((4-Me)Ph))-NH2] | 58.3 nM |  |  |  |  |  |  |  |
| Suc-EGFFE-NH2 (SMILES NC(=O)[C@H](CCC(=O)O)NC(=O)[C@H](Cc1ccccc1)NC(=O)[C@H](Cc1ccccc1)NC(=O)CNC(=O)[C@H](CCC(=O)O)NC(=O)CCC(=O)O, also called UBP002) [Suc-EGFFE-NH2] |  | 14% | 0% | 0% | 0% |  | 3180 nM | 29500 nM |
| Propionyl-[dD]EG[Phe(3-F)]WE-NH2 (also called UBP019) [Et(CO)-dEGF(3F)WE-NH2] |  | 1% | 10% | 0% | 10% | 145 nM | 145 nM | 150 nM |
| {4‑(Br)‑2‑(Me)PhSO2}-[dD]EG[Phe(3-F)]WE[Ahx]K(2Naphthoyl)-NH2 (Round II CPP; also called UBP095) [4-(Br)-2-(Me)PhSO2-dEGF(3F)WE-Ahx-K(CO(2-Naphth))-NH2] | 86.7 nM |  |  |  |  |  |  |  |
| {4‑(Br)‑2‑(Me)PhSO2}-[dD]EG[Phe(3-F)]WE[Ahx]K(2,4,6‑trimethylbenzoyl)-NH2 (Round II CPP; also called UBP096) [4-(Br)-2-(Me)PhSO2-dEGF(3F)WE-Ahx-K(CO((2,4,6-Me3)Ph))-NH2] | 114 nM |  |  |  |  |  |  |  |
| Tos-[dD]EG[Phe(3-F)]WE-NH2 (SMILES Cc1ccc(S(=O)(=O)N[C@H](CC(=O)O)C(=O)N[C@@H](CCC(=O)O)C(=O)NCC(=O)N[C@@H](Cc2cccc(F)c2)C(=O)N[C@@H](Cc2c[nH]c3ccccc23)C(=O)N[C@@H](CCC(=O)O)C(N)=O)cc1, also called UBP021) [Ts-dEGF(3F)WE-NH2] |  | 19% | 25% | 9% | 0% | 29 nM | 29 nM | 190 nM |
| Brosyl-[dD]EG[Phe(3-F)]WE[Ahx]K(2Naphthoyl)-NH2 (Round II CPP; also called UBP090) [4-(Br)PhSO2-dEGF(3F)WE-Ahx-K(CO(2-Naphth))-NH2] | 133 nM |  |  |  |  |  |  |  |
| {4‑(Br)‑2‑(Me)PhSO2}-[dD]EG[Phe(3-F)]WE[Ahx]K(Benzoyl(4-Br))-NH2 (Round II CPP; also called UBP098) [4-(Br)-2-(Me)PhSO2-dEGF(3F)WE-Ahx-K(CO((4-Br)Ph))-NH2] | 92.4 nM |  |  |  |  |  |  |  |
| Ethoxycarbonyl-[dD]EG[Phe(3-F)]WE-NH2 (SMILES CCOC(=O)N[C@H](CC(=O)O)C(=O)N[C@@H](CCC(=O)O)C(=O)NCC(=O)N[C@@H](Cc1cccc(F)c1)C(=O)N[C@@H](Cc1c[nH]c2ccccc12)C(=O)N[C@@H](CCC(=O)O)C(N)=O, also called UBP023) [EtO(CO)-dEGF(3F)WE-NH2] |  | 4% | 4% | 0% | 12% | 45 nM | 45 nM | 34 nM |
| Moc-[dD]EG[Phe(3-F)]WE-NH2 (SMILES COC(=O)N[C@H](CC(=O)O)C(=O)N[C@@H](CCC(=O)O)C(=O)NCC(=O)N[C@@H](Cc1cccc(F)c1)C(=O)N[C@@H](Cc1c[nH]c2ccccc12)C(=O)N[C@@H](CCC(=O)O)C(N)=O, also called UBP020) [MeO(CO)-dEGF(3F)WE-NH2] |  | 0% | 16% | 6% | 8% | 76 nM | 76 nM | 53 nM |
| Brosyl-[dD]EG[Phe(3-F)]WE[Ahx]K(2,4,6‑trimethylbenzoyl)-NH2 (Round II CPP; also called UBP091) [4-(Br)PhSO2-dEGF(3F)WE-Ahx-K(CO((2,4,6-Me3)Ph))-NH2] | 88.3 nM |  |  |  |  |  |  |  |
| {4‑(Br)‑2‑(Me)PhSO2}-[dD]EG[Phe(3-F)]WE[Ahx]K(Benzoyl(4-tBu))-NH2 (Round II CPP; also called UBP094) [4-(Br)-2-(Me)PhSO2-dEGF(3F)WE-Ahx-K(CO((4-tBu)Ph))-NH2] | 142 nM |  |  |  |  |  |  |  |
| Bz-[dD]EG[Phe(3-F)]WE-NH2 (also called UBP018) [Bz-dEGF(3F)WE-NH2] |  | 0% | 0% | 0% | 5% | 173 nM | 173 nM | 424 nM |
| Ac-[dD]EG[Phe(3-F)]WE-NH2 (also called UBP017) [Ac-dEGF(3F)WE-NH2] |  | 10% | 27% | 3% | 0% | 102 nM | 102 nM | 250 nM |
